Data: patent US20130171130A1 (ZymoGenetics, published 2013)

What was measured:
[1] = target: T1, IL-20RB (expressed alone on BHK cells) (human, UniProt Q6UXL0 30-311); experiment: radiolabeled ligand binding on stably transfected BHK cells
T1 construct: BHK cells stably transfected with IL-20RB only; also called DIRS1; IL-20 receptor beta chain
T1 sequence: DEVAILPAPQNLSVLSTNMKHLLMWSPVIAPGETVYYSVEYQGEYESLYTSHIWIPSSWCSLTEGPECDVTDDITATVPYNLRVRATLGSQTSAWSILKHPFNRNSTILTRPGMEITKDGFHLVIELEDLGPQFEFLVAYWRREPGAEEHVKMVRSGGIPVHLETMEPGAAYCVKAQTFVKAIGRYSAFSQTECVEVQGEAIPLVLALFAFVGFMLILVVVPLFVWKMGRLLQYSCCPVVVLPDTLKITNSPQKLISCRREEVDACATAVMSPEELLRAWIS
Procedure: (§1) The specificity and affinity of IL-20 for its receptor was determined using BHK cells stably transfected with IL-20RA, IL-20RB or both receptor subunits. […] Binding of ¹²⁵I-labeled IL-20 was eliminated in the presence of 100-fold excess of unlabeled IL-20 but not with 100-fold excess of the unrelated cytokine, IL-21.

[2] = target: T2, IL-20RA (expressed alone on BHK cells) (human, UniProt Q9UHF4 30-553); experiment: as above
T2 construct: BHK cells stably transfected with IL-20RA only; also called ZcytoR7; IL-20 receptor alpha chain
T2 sequence: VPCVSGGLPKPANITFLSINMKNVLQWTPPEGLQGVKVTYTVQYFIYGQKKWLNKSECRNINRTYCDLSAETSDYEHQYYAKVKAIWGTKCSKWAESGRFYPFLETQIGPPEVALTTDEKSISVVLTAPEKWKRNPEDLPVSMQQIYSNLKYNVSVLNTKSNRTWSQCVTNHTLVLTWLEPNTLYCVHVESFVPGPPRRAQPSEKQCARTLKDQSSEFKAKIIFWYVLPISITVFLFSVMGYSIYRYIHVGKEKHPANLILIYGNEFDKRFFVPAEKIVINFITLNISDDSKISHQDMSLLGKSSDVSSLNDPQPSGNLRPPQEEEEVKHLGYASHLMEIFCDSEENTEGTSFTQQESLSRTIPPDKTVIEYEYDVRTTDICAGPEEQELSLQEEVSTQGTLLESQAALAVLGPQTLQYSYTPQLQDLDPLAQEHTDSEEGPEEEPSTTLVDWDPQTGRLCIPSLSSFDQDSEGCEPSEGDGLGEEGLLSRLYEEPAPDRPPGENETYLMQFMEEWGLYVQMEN
Procedure: as §1

[3] = target: T3, IL-20RA/IL-20RB heterodimeric receptor (human, UniProt Q9UHF4 30-553; Q6UXL0 30-311); experiment: 125I-labeled IL-20 binding on BHK cells expressing IL-20RA and IL-20RB
T3 construct: Both subunits co-expressed on transfected COS, BHK or BaF3 cells, or endogenous on HaCaT keratinocytes; also called IL-20RB/IL-20RA heterodimer; IL-20 receptor
T3 sequence 1: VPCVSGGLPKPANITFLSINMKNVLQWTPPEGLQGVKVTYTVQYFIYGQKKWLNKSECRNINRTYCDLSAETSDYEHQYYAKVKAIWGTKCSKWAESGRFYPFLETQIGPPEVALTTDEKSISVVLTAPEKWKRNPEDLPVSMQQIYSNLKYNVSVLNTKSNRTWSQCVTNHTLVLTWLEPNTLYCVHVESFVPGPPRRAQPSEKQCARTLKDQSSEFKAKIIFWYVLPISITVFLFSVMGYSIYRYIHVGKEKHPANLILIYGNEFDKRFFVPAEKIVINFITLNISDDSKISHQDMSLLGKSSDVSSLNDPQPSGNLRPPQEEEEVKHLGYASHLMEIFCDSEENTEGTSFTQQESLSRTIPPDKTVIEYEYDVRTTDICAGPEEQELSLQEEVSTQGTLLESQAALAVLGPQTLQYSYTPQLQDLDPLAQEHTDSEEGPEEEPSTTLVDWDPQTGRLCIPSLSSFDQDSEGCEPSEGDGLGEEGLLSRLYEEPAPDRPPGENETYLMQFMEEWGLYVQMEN
T3 sequence 2: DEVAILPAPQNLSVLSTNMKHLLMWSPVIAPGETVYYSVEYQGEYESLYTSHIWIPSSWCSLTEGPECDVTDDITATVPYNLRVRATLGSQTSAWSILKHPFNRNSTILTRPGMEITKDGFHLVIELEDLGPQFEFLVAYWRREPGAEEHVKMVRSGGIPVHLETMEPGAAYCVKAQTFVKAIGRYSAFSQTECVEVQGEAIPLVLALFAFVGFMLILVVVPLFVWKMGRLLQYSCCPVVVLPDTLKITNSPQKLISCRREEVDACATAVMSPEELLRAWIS
Procedure: as §1

B1: IL-20 (Interleukin-20) (ligand, UniProt Q9NYY1 25-176, looked up)
chain: LKTLNLGSCVIATNLQEIRNGFSEIRGSVQAKDGNIDIRILRRTESLQDTKPANRCCLLRHLLRLYLDRVFKNYQTPDHYTLRKISSLANSFLTIKKDLRLCHAHMTCHCGEEAMKKYSQILSHFEKLEPQAAVVKALGELDILLQWMEETE
notes: also called Zcyto10; IL-20 protein
[1]
  binding result: no binding
[2]
  binding result: no binding
[3]
  Kd: ~1.5 nM
